Measured values published in patent publication US11324803B2, “Methods and compositions for treatment of Gaucher Disease via modulation of C5a receptor” (Children's Hospital Medical Center, priority 2015, dated 2022).

Columns and labels:
[1] = molecular target: human C5aR2 (C5L2) (Homo sapiens, UniProt Q9P296); conditions: cited from earlier work
[2] = molecular target: T1, C5aR1 (Mus musculus, UniProt P30993); assay: C5aR antagonist A8^Δ71-73 (C5aRA) i.p. treatment of Gaucher disease-prone 9V/null mice; assay type: in vivo; conditions: for pro-inflammatory cytokine (and chemokine) production: DCs and T cells of C5aRA-treated 9V/null mice
T1 construct: endogenous in cells; host or cells: WT and 9V/null mice (mixed FVB/C57BL 6J/129SvEvBrd background), in vivo
T1 sequence (P30993 1-351): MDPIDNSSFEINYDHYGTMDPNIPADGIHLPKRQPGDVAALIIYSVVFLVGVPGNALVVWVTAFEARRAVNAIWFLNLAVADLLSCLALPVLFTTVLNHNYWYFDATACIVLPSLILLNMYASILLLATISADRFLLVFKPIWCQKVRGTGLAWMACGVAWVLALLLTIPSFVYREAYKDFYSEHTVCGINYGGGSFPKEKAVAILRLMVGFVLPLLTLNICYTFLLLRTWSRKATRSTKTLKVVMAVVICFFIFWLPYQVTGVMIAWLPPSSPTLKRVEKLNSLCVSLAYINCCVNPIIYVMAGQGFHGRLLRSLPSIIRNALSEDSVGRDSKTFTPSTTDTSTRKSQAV
From the text: Sera from human patients with Gaucher disease (n=10) and healthy volunteers (n=15) were from the freezer and de-identified. Human patients with Gaucher disease were diagnosed at Cincinnati Children's Hospital Medical Center (CCHMC). […] The study was approved by the ethics committee at CCHMC. In vivo C5aR1 deficiency or blockade in 9V/null mice and in a CBE-induced mouse model of Gaucher disease. To assess the impact of genetic or pharmacological targeting of C5aR1 on the inflammatory response in Gaucher disease, WT (n=10) and C5aR1^−/− mice (n=10) were treated with conduritol B epoxide (CBE), which is an irreversible inhibitor of acid β-glucosidase^24. More specifically, both mouse strains were injected intraperitoneally (i.p.) with 100 mg CBE/kg body weight or vehicle (PBS)/day for up to 60 days, which was the termination point of these experiments. After 60 days of the indicated treatment with CBE, immune cells (MΦs, DCs, and T cells) were purified from lung of these mouse strains and used for measurement of GC, costimulatory molecules, and several of the pro-inflammatory cytokines. In additional experiments, WT (n=15) or 9V/null mice (n=15) were injected with 100 μl of the C5aR antagonist A8^Δ71-73 (i.p. 0.5 mg/kg) or vehicle (100 μl, PBS) on five consecutive days. Five days after the final C5aRA treatment, liver, spleen and lung were separated and measured for GC accumulation. Further, DCs and CD4^+ T cells were purified from the lung of the indicated mouse strains and measured for costimulatory molecule expression and the production of pro-inflammatory cytokines. Preparation of tissue cells. Liver, spleen, lung and BM were harvested aseptically. Single cell suspensions from liver and lung were obtained from minced pieces that were treated with Liberase Cl (0.5 mg/mL) and DNase (0.5 mg/mL) in RPMI (45 min, 37° C.). Single cell suspensions from spleen were obtained by grinding and then filtration through a 70-micron cell strainer. […] For BM cells, femurs, tibias and humeri were flushed with sterile phosphate buffered saline (PBS), followed by RBC lysis (155 mM NH4Cl, 10 mM NaHCO3, 0.1 mM EDTA), passage through a strainer. Cells were then pelleted by centrifugation at 350×g. Viable cells were counted using a Neubauer chamber and trypan blue exclusion. DCs, MΦs, and CD4^+ T lymphocytes were purified from single cell suspensions of liver, spleen, and lung using CD11c, CD11b, and CD4 (L3T4) microbeads according to the manufacturer's protocol. The purity of the cells was ˜90%-95%.
Tissue cells were suspended in PBS containing 1% BSA. After incubation (15 min, 4° C.) with Fc©R-blocking antibody 2.4G2, cells were stained (45 min, 4° C.) with the following antibodies to identify APCs and T cell: CD4 for T cells; CD11b and F4/80 for Ms; and CD11b and CD11c for DCs. Cells were also stained with the respective isotype antibodies as controls. MΦs were first identified by their typical FSC/SSC pattern, F4/80 and CD11 expression. DCs were identified as CD11c^+CD11b^+ cells. Further, CD40, CD80 CD86 and C5aR1 expression was determined in tissue DCs. T cells were first characterized by their FSC/SSC pattern and CD3 staining. CD3^+T cells were further stained for CD4, CD40L and CD69 expression. A total of […] were acquired for each cell type isolated from the different organs. Specific surface expression was assessed relative to the expression of the corresponding isotype control antibody. Fortessa-I, Fortessa-II, and LSRII flow cytometers were used to characterize the cells. FCS express (version 4; DeNovo Software) was used to analyze the data.
Lipids were extracted from tissues (5 mg; liver, spleen, and lung), purified immune cells, (e.g., MΦ, DCs, and CD4^+T) and GC-specific IgG2a by chloroform and methanol^2, 25, 26. […]

[3] = C5aRA-treated 9V/null mice, i.p. 0.5 mg/kg on five consecutive days, CD68+ immunohistochemistry
[4] = C5aRA-treated vs vehicle-injected 9V/null mice, ESI-LC-MS/MS
[5] = DC/CD4+ T cell co-culture 48 h from C5aRA-treated mice, ELISA
[6] = in response to C5aRA treatment, flow cytometry

Chain of human C5aR2 (C5L2) (Q9P296 whole entry): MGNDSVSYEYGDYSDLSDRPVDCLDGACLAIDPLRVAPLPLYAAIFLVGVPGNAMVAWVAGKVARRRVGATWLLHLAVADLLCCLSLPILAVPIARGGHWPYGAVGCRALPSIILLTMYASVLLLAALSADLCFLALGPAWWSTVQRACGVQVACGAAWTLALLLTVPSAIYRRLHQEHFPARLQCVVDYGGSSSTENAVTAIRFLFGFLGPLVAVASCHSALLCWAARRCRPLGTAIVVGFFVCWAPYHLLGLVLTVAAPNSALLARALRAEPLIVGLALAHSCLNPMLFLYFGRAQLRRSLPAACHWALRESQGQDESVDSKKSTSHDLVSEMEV

B1: Thr Leu Gln Lys Lys Ile Glu Glu Ile Ala Ala Lys Tyr Lys His Ser Val Val Lys Lys Cys Cys Tyr Asp Gly Ala Ala Val Asn Asn Asp Glu Thr Cys Glu Gln Arg Ala Ala Arg Ile Ser Leu Gly Pro Arg Cys Ile Lys Ala … (protein)
chain: TLQKKIEEIAAKYKHSVVKKCCYDGAAVNNDETCEQRAARISLGPRCIKAFTECCVVASQLRANISFKRS
modifications: mutant C5a-(1-66, Cys27A1a) -A8B-Del. 71-73 of human C5a
notes: positions 27 and 68-71 of human C5a mutated and positions 72-74 deleted
affinity to bind human C5aR2 (C5L2) [1]: high affinity | co-stimulatory molecule expression in DCs and CD4+ T cells ([2]; C5aRA-treated 9V/null mice): marked reduction | MΦ infiltration of the liver [2, 3]: substantially reduced | MΦ infiltration of the lung [2, 3]: substantially reduced | MΦ infiltration of the spleen [2, 3]: substantially reduced | co-stimulatory molecule expression in DCs and CD4+ T cells ([2]; C5aRA-treated 9V/null mice, listed as C5aR antagonist A8^Δ71-73): decreased levels | GCs ([2]; C5aRA-treated 9V/null mice, liver and spleen (FIG. 12)): marked reduction | GC storage in liver [2, 4]: significantly decreased | GC storage in lung [2, 4]: significantly decreased | GC storage in spleen [2, 4]: significantly decreased | IFN-γ production [2, 5]: markedly decreased | IL-1 production [2, 5]: markedly decreased | IL-6 production [2, 5]: markedly decreased | IL-17 production [2, 5]: markedly decreased | TNF-α production [2, 5]: markedly decreased | pro-inflammatory cytokine (and chemokine) production [2]: marked reduction | pro-inflammatory cytokine (and chemokine) production ([2]; listed as C5aR antagonist A8^Δ71-73): less | GC accumulation in MΦs ([2]; MΦs of treated 9V/null mice): marked reduction | CD40L expression in CD4+ T cells [2, 6]: significantly reduced | CD40 expression in pulmonary DCs [2, 6]: significantly reduced | CD69 expression in CD4+ T cells [2, 6]: significantly reduced | CD80 expression in pulmonary DCs [2, 6]: significantly reduced | CD86 expression in pulmonary DCs [2, 6]: significantly reduced | MΦs, DC and T cells mediated immune inflammation ([2]; mouse model of Gaucher disease, i.p.): significantly reduces | loss of CD41+ platelets ([2]; treated 9V/null mice): decreased loss | loss of Ter119+ RBCs ([2]; treated 9V/null mice): decreased loss
